# The nanobody polyreactivity screen of Harvey et al. (2022)
# Assay: yeast display, Sf9 membrane polyspecificity reagent, FACS + sequencing; frameworks hold sequencing errors
# Summary of the method: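 Nanobodies came from a synthetic yeast display library in Saccharomyces cerevisiae BJ5465, induced with galactose for 36–48 hours and stained for 1 hour at 4 °C with 10% biotinylated, detergent-solubilized Sf9 membrane reagent. Cells were enriched on streptavidin microbeads and then FACS-sorted, with low and high (top ~1%) gates set on anti-HA fluorescence for expression and streptavidin fluorescence for reagent binding. Each polyreactivity label reflects the gate a clone came from. Genes were amplified by colony PCR, sequenced by MiSeq 2 × 250 and filtered by CDR length.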
row,Sequence,polyreactivity (PSR sort gate)
1,QVQLVESGGGLVQEGGSLRLSCAASGSIFRKYAMGWYRQAPGKERELVAVITTDGSTNYADSVKGRFTISRDNAKNSVYLQMNSMNPEDTAVYYCNAVRSSIGTDIDYWGQGTQVTGSS,low polyreactivity
2,QVQHVESGGGLVQAGGSLRLSCAASGIILRSNAMGWYRQAPGKERELVAAINYSGGRTYYADSVKGRFTISRDTAKNTVYLQMNSLKPEDTAVYYCAAGGYPYGLSRVKLYYWGQGTQVTVSS,high polyreactivity
3,QVQLVESGGGLVQAGGSLRLSCAASGRTFVGYAMGWYRQAPGKERELLAAISKSGGRTYYADSVKGRFTISRDNAKNTVFLQMNSLKPDDTAVYYCNAVVVYYVDAGRYDYWGQGTQVTVSS,high polyreactivity
4,QVQLVESGGGLVQAGGSLRLSCAASGSIFYYYARGWYRQAPGKERELVAAITSGGRTKYADSVKGRFTISRDNAKNTVNLQMNSLKPEDTAVYYCNARNYGKYRTNDYWGQGTQVTVSS,high polyreactivity
5,QVQLVESGGGLVQAGGSLRLSCAASGSSFNRYAMGWYRQAPGKERELVAGISYRGGTYYADSVKGRFTISRDNAKNTVYLQMNSLKPEDTAVYYCNVVRRGTTSYDDYDYWGQGTQVTVSS,high polyreactivity
6,QVQLVESGGCLVQAGGSIRLSCAASGSIFKSNAMGWYRQAPGKERELVAAISNGGITNYADSVKVRFTISRDNAKNTDYLQMNSLKPEDTAVYYCNARNNYWWYCPGYDYWGQGTQLTVSS,low polyreactivity
7,QVQLVESGGGLVQAGGSLRLSCAASGRIFKVNTMGWYRQAPGKERELVASIRGGGSTNYADSVKGRFTISRDNAKNTVNLQMHSPKPEDTAVYYCAAGTSKPTPIYGYWGQGTQVTVSS,low polyreactivity
8,QVHLVESGGGLVQAGGSLRLSCAASGFIFYYYAMGWYRQAPGKERELFARISRRGGSTYYADSVKGRFTISRDNAKNTVYLQMNSLKPEDTAVYYCAAVYLVYYGVSDMDYWGQGTKVTVSS,high polyreactivity
9,QVQLVESGGGVVQAGGSLRLSCAASGSIFYYYAMGWYRQAPGKERELVASITHTGGSTNYADSVKGRFTISRDNAKNTVYLQKNSLKPEDTAVYYCAAEYWNDNYSDPLYDYWGQGTQVTVSS,low polyreactivity
10,QVQLVESGGGLVQAGGSLRLSCAASGRIIYSYAMGWYRQAPGKERELVATITASGGRTYYADSVKGRFTISRDNAKNTVYLQMHSLKQEDSAVYYCNARYYGSFRRRYDYWGQGTQVTVSS,high polyreactivity
11,QVQLVESGGGLVQAGGSLRLSCAASGRIFSSNAMGWYRQAPGKEREFVAAISWRTGSTYYADSVKGRFTISRDNAKNTVYLQMNSLKPEDTAVYYCAAVYWTFWGTIATRYDYWGQGTQVTVSS,high polyreactivity
12,QVQLVESGGGLVQAGGSLRLSCAASGFTFGDYAMGWYRQAPGKERELVAAITSTGGSTYYADSVKGRFTISRDNEKHSVYLQMNCLKPEDTAVYYCAKPDYYRMGYWGQGTQVTVCS,low polyreactivity
13,QVQLVESGGGLVQAGGRLRLSCAASGFTFHNNVMGWYRQAPGKERELVATISKSGGSTYYADSVKGRFTISRDHAKNTVYLQMNSLKPEDTAVYYCARRYRDYGRYGYWGQGTQVTVSS,high polyreactivity
14,QVQLVESGGGLVQAGGSHRLSFAASGSIFWRNAMGWYRQAPGKERELVAVISGGSTYADSVKGRFTISRDNAKNTVYLKMNSLKPEDTAVYFCNADLYVSSYPKGYDYWGQGTQVTVSS,low polyreactivity
15,QVQLVESGGGLVQAGGSLRLSCAASGSTLLYYAMGWSRQAPGKERELVAAITSGARTYYADSVKGRFTISRDNAKNTVYLQMNSLKPEDTAVYYCNAYRTSWWRAYDYWGQGTQVTVSS,high polyreactivity
16,QVQLVESGGGLVQAGGSLRLSCAASGSTFLSYAMGWYRQAPGHERELVAAISIAGSTYYADSVKGRFTISRANAKNTVYLQMHSLKPEDTAVDYCRRYYRIYDYWGQGTQVTVSS,low polyreactivity
17,QVQLVESGGGLVQAGGSLRLSCAASGFTFAYYAMGWYRQAPGKERELVAAISERGGSTYYADSVKGRFTISRDNAKNTVYLQMNSLKPEDTAVYYCARTFWDYPWYQSSYYSWGQGTQVTVSS,low polyreactivity
18,QVQLVESGGGLVQAGGSLRLSCAASGFTFDKYAMGWYRQAPGKERELVAAISNSGGRTYYADSVKGRFTISRDNAKNTVYLQMNSLKPEDTAVYYCTIFKDYDYWGQGTQVTVSS,high polyreactivity
19,QVQLVESGGGLVQAGGSLRLSCAASGSIFVGNAMGWYRQAPGKERELVAAISWSGGSTYYADSVKGRFTISRDNAKNTVYLQMNSLKPEDTAVYYCATQLSIRMDYWGQGTQVTVSS,high polyreactivity
20,QVQLVESGGGLVQAGGSLRLSCAASGITFRSYDMGWYRQAPGTERELVAAISSTGRTYYADSVKGRFTISRDNAKNTVYLQMNSLKPEDTAVYYCARARSHYAYYWWNAGTGLDYWGQGTQVTVSS,high polyreactivity
21,HVQLVESGGGLVQAGGSLRLSCAASGSTFGQYTMGWYRQAPGKERELVATISSGGSTYYADSVKGRFTISRDNAKHTVYLQMNSLKPEDTAVYYCAARYWSIYDYWGQGTQVTVSS,low polyreactivity
22,QVQLVESGGGLVQAGGSLRLSCAASGFIFSFYVMGWYRQAPGKERELVAAISTSGASTYYADSVKGRFTISRDNAKNTVYLQMNSLKPEDTAVFYCNVVYRYGGYNYWGQGTQVTVSS,high polyreactivity

row,Sequence,polyreactivity (PSR sort gate)
1,QVQLVESGGGLVQAGGSLRLSCAASGSTFLTYAMGWYRQAPGKERELVAAISIAGSTYYADSVKGRFTISRDNAKNTVYLQMNSLKPEDTAVYYCAADIFERGPVPDRHNGYDYWRQGTQVTVSS,low polyreactivity
2,QVQLVESGGGLVQAGGSLRLSCAASGLIYFYAMGWYRQAPGKERELVAAISSSGGRTYYADSVKGRFTISRDNAKNTVYLQMNSLKPEDTAVYYCAVVSSHYIGPGRNGYDYWGQGTQVTVSS,high polyreactivity
3,QVQLVESGGGLVQAGGSLRLSCAASGSTFSTNVMGWYRQAPGKERELVAAISTIGGSTYADSVKGRFTISRDNAKNTVYLQMNSQKPEDTAVYYCAKRSRYPYYPYGYWGQGTQVTVSS,high polyreactivity
4,QVQLVESGGGLVQAGGSLRLSCAASGSIFVGYAMGWYRQAPGKERELVAAITSGGNTNYADSVKGRFTISRDNAKNTVYLQMNSLKPEDTAVYYCNKDQGDGLRSQLGTDATYDYWGQGTQVTVSS,low polyreactivity
5,QVQLVESGGGLVQAGGSLRLSCAASGFTFGPYDMGWYRQAPGKERELVAVIIGGDSTNYADSVKGRFTISRDNAKNSVYLQMNSLKPEDTAVYYCAADYIDRVGWMDYWGQGTQVTVSS,low polyreactivity
6,QVQLVESGGGLVQAGGTLRLSCAASGSIFRYYTMGWYRQAPGKERELVAAITWDGDSTYYADSVKGRFTISLDNAKNTVYLQMNSLKPEDTAVYYCNADDYGPGFDYWGQGTQVTVSS,low polyreactivity
7,QVQLVESGGGLVQAGGSLRLSCAASGGIFYYNAMGWYRQAPGKERELLAAITFSGGGTYYADSVKGRFTISRDNAKNTVYFQMNSLKPEDTAVNYCAAKFYRYAWFLGYDYWGQGTQVTVSS,high polyreactivity
8,QVQLVDSGGGLVQAGGSLRLSCDASGSIFFWYTMGWYRQAPGKESELVATITGSGSSTTYADSVKGRFTISRDNAKNTVYLQMISLKPEDTAVYYCAAADIIDHSFPYDYWGLGTQVTVSS,low polyreactivity
9,QVQLVESGGGLVQAGGSLRLSCAASGSTFGEYPMGWYRQAPGKEREFVAAITFSDDSTYYADSVKGRFTISRDNAKNTVYLQMNSLKPEDTAVYYCAAVLSRHYDYWGQGTQVTVSS,high polyreactivity
10,QVQLVESGGGLVQAGGSLRLSCAASGRIFAYYAMGWYRQAPGKERELVAAISRSGGSTYYADSVKGRFTISRDNAKNTVYLLMNSLKPEDTAVYYCNVVRVRYYWWEFDYWGQGTQVTVSS,high polyreactivity
11,QVQHEESGGGLVQAGGSLRLSCAASGRIFGAYPMGWSRQATGKERELVAAITSRGGNTYYADSVKGRFTISRDNAKNTVYLQMNSLKPEDTAVYYCAARHDKRRQYYVGQSAFDYWGQGTQVTVSS,low polyreactivity
12,QVKLVESGGGLVQAGGSLRLSCAASGNTFGGYAMGWYRQAPGKERELVAAISSSGGSTYYADSVKGRFTISRDNAKNTVYLQMNSLKPEDTAVYYCAAYGGFYGYWTMGYWGQGTQVTVSS,high polyreactivity
13,QVQLVESGGGLVQAGGSLRLSCAASGYIFHRYAMGWYRQAPGKERELVAAISWRVTSTFYADSVKGRFTISRDNAKNTVYLQMNCLKPEDTAVYYCASVKWVGYKYWSSRKYDYWGQGTQVTVSW,high polyreactivity
14,QVQLVESGGGLVQAGGSLRLSCAASGSTFRYNAMGWYRQAPGKERELVAGITSSGGTYADSVKGRFTISRDNAKNTVSLQMNSLKPEDTAVYSCAAEYNWYDYWGQGTQVTVSS,low polyreactivity
15,QVQLVKSGGGLVQAGGSLRLSCAASGFIIPEYTMGWYRQAPGKERELVAAISGSGGSTYYADSVKGRFTISRDNAKNTVYLQMNSLKPEDTAVYYCAASYAVSRYLQTYAHAHGYWGQGTQVTVSS,low polyreactivity
16,QVQLVESGGGLVQAGGSLRLSCAASGFIYSRYAMGWYRQAPRKEMDFFAAISRNGGSTYYADSVKGRITISRDNAKNTVYLQMNSLKPDDTAVYYCIAPYFVTSTYANTLGFDYWGQGTQVTVSS,high polyreactivity
17,QVLLQESGGGLVQAGGSLRLGCAASGTISPAYYMGRYHQAPGKEREFVAAITYGTNTYYADSVKGRFTISRDNAKNNVYLQMNSLKPEDTAVYYCSASAGYNGAHDYWGQGTQVTVSS,low polyreactivity
18,QVQLVESGGGIVQAGGSLRLSCATSGRIFDNNPKGRYRQAPGKESEMVAAIDWRGGTTDYADSVKGRFTISRDNAKNTVYFQMKSLKPEDTAVYYSNARGLNYYGRTFNYWGQGTQVTVSS,low polyreactivity
19,QVQLVESGGGLDQAGGSLRLSCAASGRTFYRNVMGWYRQAHGKERELVAAISSRGGSTYYADSVKGRFTISRDNAKNTVYLQMNSLKPEDTAVYYCAAYYYRRRYGGKYDYWGQGTQVTVSS,high polyreactivity
20,QVQLVESGGGLVQAGGSLRLSCAASGNISWYNAMGWYRQAPGKERELVAAITSSGSGTYYADSVKGRFTISRDNAKHTVYLQMNSLKPEDTAVYYCIADNAIRYDYWGQGTQVTVSS,high polyreactivity
21,QVHLVESGGGLVQAGGSLRLSCAASGRIFYAYAMGWYRPAPVKERELVAAITWSGGSTYYADSVKGRFTISRDNAKNTVYLQMNSLKPEDTAVYYCAADLRVKYVHTYSYVWYRYDYWGQGTQVTVSS,high polyreactivity
